From US20050107296A1 (INSTITUT DES VAISSEAUX ET DU SANG, published 2005)

Target: T1, soluble HGF-R, chimeric fusion protein (HGF-R/IgG) comprising the HGF-binding portion of the extracellular … (UniProt P08581 25-932, limits assumed)
T1 construct: also called c-Met; not shown: a portion of IgG
Assay: SPR (BIAcore 2000), N immobilized on the sensor chip, soluble HGF-R/IgG injected at three different doses

T1 sequence (P08581 25-932 limits assumed, change not shown): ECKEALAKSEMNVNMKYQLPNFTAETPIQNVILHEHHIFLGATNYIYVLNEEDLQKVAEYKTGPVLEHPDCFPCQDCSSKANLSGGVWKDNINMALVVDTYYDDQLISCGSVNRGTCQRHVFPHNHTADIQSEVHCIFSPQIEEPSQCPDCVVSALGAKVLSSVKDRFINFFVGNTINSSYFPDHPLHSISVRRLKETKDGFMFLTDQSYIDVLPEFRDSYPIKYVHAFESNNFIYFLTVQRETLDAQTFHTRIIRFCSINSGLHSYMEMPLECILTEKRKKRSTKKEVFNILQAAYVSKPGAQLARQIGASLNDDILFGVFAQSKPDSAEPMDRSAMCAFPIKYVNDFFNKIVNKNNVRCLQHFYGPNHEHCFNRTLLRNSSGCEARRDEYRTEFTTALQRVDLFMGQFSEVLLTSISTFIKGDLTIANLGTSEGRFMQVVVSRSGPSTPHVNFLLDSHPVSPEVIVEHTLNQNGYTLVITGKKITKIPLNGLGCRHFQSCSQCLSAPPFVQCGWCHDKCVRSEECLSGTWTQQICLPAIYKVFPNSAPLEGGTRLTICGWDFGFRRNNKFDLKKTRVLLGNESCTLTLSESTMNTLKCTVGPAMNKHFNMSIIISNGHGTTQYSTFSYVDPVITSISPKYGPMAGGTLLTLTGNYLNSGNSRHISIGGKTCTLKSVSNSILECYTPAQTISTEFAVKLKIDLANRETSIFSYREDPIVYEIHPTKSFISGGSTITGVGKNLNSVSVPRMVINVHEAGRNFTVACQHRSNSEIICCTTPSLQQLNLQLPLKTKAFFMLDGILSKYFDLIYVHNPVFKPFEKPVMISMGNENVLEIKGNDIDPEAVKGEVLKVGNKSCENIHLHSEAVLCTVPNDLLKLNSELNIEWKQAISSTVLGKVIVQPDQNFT

binding result: no binding
B1: peptide N derived from the HGF α-chain (hairpin-loop domain of HGF, N-terminal Gln instead of PyrGlu) (peptide)
chain: QRKRRNTIHEFKKSAKTTLIKIDPALKIKTKKVNTADQCANRCTRNKGLPFTCKAFVFDKARKQCLWFPFNSMSSGVKKEFGHEFDLYENKDYIRN
notes: Expressed in E. coli and purified; In Assay 6 it was immobilized on the BIAcore sensor chip; also called Ex 1
